This test deals with His-G3BP1 (human, UniProt Q13283 1-466). Description: pull-down.

Where no end group is shown, it is not given here.

Sequence of His-G3BP1 (Q13283 whole entry): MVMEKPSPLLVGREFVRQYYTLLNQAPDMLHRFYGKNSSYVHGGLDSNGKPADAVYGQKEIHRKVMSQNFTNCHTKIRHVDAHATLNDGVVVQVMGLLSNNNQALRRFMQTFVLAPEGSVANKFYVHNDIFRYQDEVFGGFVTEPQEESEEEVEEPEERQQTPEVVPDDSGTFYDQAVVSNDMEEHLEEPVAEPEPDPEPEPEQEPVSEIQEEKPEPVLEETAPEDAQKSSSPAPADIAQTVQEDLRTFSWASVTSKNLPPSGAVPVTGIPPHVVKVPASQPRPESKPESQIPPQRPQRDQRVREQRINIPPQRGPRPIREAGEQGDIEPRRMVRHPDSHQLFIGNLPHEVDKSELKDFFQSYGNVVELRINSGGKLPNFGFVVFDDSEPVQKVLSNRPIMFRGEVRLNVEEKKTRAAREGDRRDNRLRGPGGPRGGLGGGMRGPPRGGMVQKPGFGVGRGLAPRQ

B1: USP10_(8–25)WT peptide (peptide)
peptide: YIFGDFSPDEFNQFFVTP-biotin
Regarding B1, the binding result is listed as “binds”.

The values are drawn from paper PMC4810302 (The Journal of Cell Biology, 2016).
